Experimental data as given in patent publication US20260193317A1, “COMBINATION THERAPY WITH ACTRIIB RECEPTOR VARIANTS AND GLP-1 AGONISTS” (35PHARMA Inc., priority 2023, published 2026).

Legend:
[1] = molecular target: GLP-1 receptor (GLP-1R) on CHO-K1 cells stably overexpressing GLP-1R (UniProt P43220); assay: cell-based or functional assay
[2] = molecular target: T1, GIP receptor (GIPR) on CHO-K1 cells stably overexpressing GIPR (UniProt P48546); assay: cell-based or functional assay
T1 sequence (looked up): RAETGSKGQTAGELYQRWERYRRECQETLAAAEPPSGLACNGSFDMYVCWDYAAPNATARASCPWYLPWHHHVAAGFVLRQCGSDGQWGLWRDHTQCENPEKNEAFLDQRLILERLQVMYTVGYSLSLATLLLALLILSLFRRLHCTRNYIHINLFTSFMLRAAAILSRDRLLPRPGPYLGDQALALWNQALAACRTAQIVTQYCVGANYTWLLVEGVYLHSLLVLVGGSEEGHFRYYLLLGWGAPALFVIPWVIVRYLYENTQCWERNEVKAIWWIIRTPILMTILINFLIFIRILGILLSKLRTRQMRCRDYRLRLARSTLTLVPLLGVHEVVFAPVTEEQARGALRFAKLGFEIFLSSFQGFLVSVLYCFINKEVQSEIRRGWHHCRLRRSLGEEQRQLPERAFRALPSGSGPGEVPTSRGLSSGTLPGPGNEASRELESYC

[3] = Co-formulation study of ectodomain-based traps with incretin mimetics (monomer content by SEC / RP-HPLC, integrity, stability); type: physicochemical; details: retatrutide formulations, 20 mM NaPO4, glycine, sucrose, histidine pH 7.5
Description: In each case, the following parameters were assessed: a) monomer content (size exclusion chromatography), b) activin A and GDF-8 neutralization (cell-based assays [CBAs]), c) activin A binding (ELISA), d) GLP-1 receptor binding (ELISA).
In each case, the following parameters were assessed: a) monomer content (size exclusion chromatography), b) activin A and GDF-8 neutralization (cell-based assays [CBAs]), and c) GLP-1 receptor activation (CBA).
Given that protein aggregation can be indicative of reduced conformational stability and decreased activity, Size-Exclusion Chromatography-High Performance Liquid Chromatography (SEC-HPLC) was used to determine the purity of each ActRIIB-ECD construct. This method measured the percentage of intact monomeric species as well as the presence of aggregates and/or degradation products.
In some instances, the method used to assess the purity of an agent was based on a reversed-phase high-performance liquid chromatography (RP-HPLC) setup with a C18 column. The mobile phases consisted of acetonitrile with 0.1% formic acid (organic phase) and water with 0.1% formic acid (aqueous phase). […] Formic acid anions form an ion pair with positively charged peptides, increasing their hydrophobicity and therefore their retention time. Detection was performed using a UV detector, at 280 nm.

Sequence of GLP-1 receptor (GLP-1R) on CHO-K1 cells stably overexpressing GLP-1R (P43220 24-463 limits assumed): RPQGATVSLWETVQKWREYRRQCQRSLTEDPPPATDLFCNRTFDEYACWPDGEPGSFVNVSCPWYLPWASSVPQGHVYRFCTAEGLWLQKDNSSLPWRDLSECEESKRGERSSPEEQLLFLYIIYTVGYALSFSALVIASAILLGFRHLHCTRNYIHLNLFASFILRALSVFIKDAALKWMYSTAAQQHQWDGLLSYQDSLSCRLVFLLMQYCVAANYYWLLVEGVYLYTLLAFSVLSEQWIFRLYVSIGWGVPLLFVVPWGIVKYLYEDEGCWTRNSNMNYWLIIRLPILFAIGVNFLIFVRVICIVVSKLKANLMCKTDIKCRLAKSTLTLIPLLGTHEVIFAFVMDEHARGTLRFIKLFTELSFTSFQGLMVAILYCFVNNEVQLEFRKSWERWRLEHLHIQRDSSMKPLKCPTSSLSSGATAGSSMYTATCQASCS

In the case of retatrutide (peptide), the CBA potency GLP-1R; P1372 + retatrutide; D 0 [1] is reported as 3 pM, the CBA potency GLP-1R; P1372 + retatrutide; D 7 2-8°C [1] is reported as 2 pM and the CBA potency GLP-1R; P1372 + retatrutide; D 7 RT [1] is reported as 1.8 pM. For the same molecule, the CBA potency GLP-1R; P1372 + retatrutide; D 14 2-8°C [1] was 4.1 pM, the CBA potency GLP-1R; P1372 + retatrutide; D 14 RT [1] was 3.3 pM and the CBA potency GLP-1R; P1372 + retatrutide; D 28 2-8°C [1] was 2.9 pM. It also gave a CBA potency GLP-1R; P1372 + retatrutide; D 28 RT [1] of 2.1 pM, a CBA potency GLP-1R; P1372 + retatrutide; D 56 2-8°C [1] of 2.3 pM and a CBA potency GLP-1R; P1372 + retatrutide; D 56 RT [1] of 2.3 pM. The CBA potency GLP-1R; Retatrutide alone; D 0 [1] was 3 pM, the CBA potency GLP-1R; Retatrutide alone; D 7 2-8°C [1] was 1.8 pM and the CBA potency GLP-1R; Retatrutide alone; D 7 RT [1] was 2.5 pM. The CBA potency GLP-1R; Retatrutide alone; D 14 2-8°C [1] was 3.1 pM, the CBA potency GLP-1R; Retatrutide alone; D 14 RT [1] was 5.6 pM and the CBA potency GLP-1R; Retatrutide alone; D 28 2-8°C [1] was 2.7 pM. It also gave a CBA potency GLP-1R; Retatrutide alone; D 28 RT [1] of 2.7 pM, a CBA potency GLP-1R; Retatrutide alone; D 56 2-8°C [1] of 2.1 pM and a CBA potency GLP-1R; Retatrutide alone; D 56 RT [1] of 1.9 pM. It also gave a CBA potency GIPR; P1372 + retatrutide; D 0 [2] of 0.94 pM, a CBA potency GIPR; P1372 + retatrutide; D 7 2-8°C [2] of 0.98 pM and a CBA potency GIPR; P1372 + retatrutide; D 7 RT [2] of 0.98 pM. For the same molecule, the CBA potency GIPR; P1372 + retatrutide; D 14 2-8°C [2] was 1.1 pM, the CBA potency GIPR; P1372 + retatrutide; D 14 RT [2] was 0.76 pM and the CBA potency GIPR; P1372 + retatrutide; D 28 2-8°C [2] was 1 pM. The CBA potency GIPR; P1372 + retatrutide; D 28 RT [2] was 0.84 pM, the CBA potency GIPR; P1372 + retatrutide; D 56 2-8°C [2] was 0.85 pM and the CBA potency GIPR; P1372 + retatrutide; D 56 RT [2] was 0.75 pM. For the same molecule, the CBA potency GIPR; Retatrutide alone; D 0 [2] was 0.74 pM, the CBA potency GIPR; Retatrutide alone; D 7 2-8°C [2] was 1 pM and the CBA potency GIPR; Retatrutide alone; D 7 RT [2] was 0.87 pM. For the same molecule, the CBA potency GIPR; Retatrutide alone; D 14 2-8°C [2] was 1 pM, the CBA potency GIPR; Retatrutide alone; D 14 RT [2] was 1.2 pM and the CBA potency GIPR; Retatrutide alone; D 28 2-8°C [2] was 1.1 pM. For the same molecule, the CBA potency GIPR; Retatrutide alone; D 28 RT [2] was 1.1 pM, the CBA potency GIPR; Retatrutide alone; D 56 2-8°C [2] was 0.84 pM and the CBA potency GIPR; Retatrutide alone; D 56 RT [2] was 0.82 pM.
For `CC[C@H](C)[C@H](NC(=O)[C@H](Cc1ccccc1)NC(=O)[C@H](C)NC(=O)C(C)(C)NC(=O)[C@H](CCC(N)=O)NC(=O)[C@H](C)NC(=O)[C@H](CCCCNC(=O)COCCOCCNC(=O)CC[C@H](NC(=O)CCCCCCCCCCCCCCCCCCC(=O)O)C(=O)O)NC(=O)[C@H](CCCCN)NC(=O)[C@H](CC(=O)O)NC(=O)[C@H](CC(C)C)NC(=O)[C@](C)(CC(C)C)NC(=O)[C@@H](NC(=O)[C@H](CO)NC(=O)[C@H](Cc1ccc(O)cc1)NC(=O)[C@H](CC(=O)O)NC(=O)[C@H](CO)NC(=O)[C@@H](NC(=O)[C@H](Cc1ccccc1)NC(=O)[C@@H](NC(=O)CNC(=O)[C@H](CCC(N)=O)NC(=O)C(C)(C)NC(=O)[C@@H](N)Cc1ccc(O)cc1)[C@@H](C)O)[C@@H](C)O)[C@@H](C)CC)C(=O)N[C@@H](CCC(=O)O)C(=O)N[C@@H](Cc1ccc(O)cc1)C(=O)N[C@@H](CC(C)C)C(=O)N[C@@H](CC(C)C)C(=O)N[C@@H](CCC(=O)O)C(=O)NCC(=O)NCC(=O)N1CCC[C@H]1C(=O)N[C@@H](CO)C(=O)N[C@@H](CO)C(=O)NCC(=O)N[C@@H](C)C(=O)N1CCC[C@H]1C(=O)N1CCC[C@H]1C(=O)N1CCC[C@H]1C(=O)N[C@@H](CO)C(N)=O` [Retatrutide alone], the “Monomer Content (%) Retatrutide” value ([3]; D 0) was 100%, the “Monomer Content (%) Retatrutide” value ([3]; D 7, 2-8° C.) was 100% and the “Monomer Content (%) Retatrutide” value ([3]; D 7, RT) was 100%. For the same molecule, the “Monomer Content (%) Retatrutide” value ([3]; D 14, 2-8° C.) was 100%, the “Monomer Content (%) Retatrutide” value ([3]; D 14, RT) was 100% and the “Monomer Content (%) Retatrutide” value ([3]; D 28, 2-8° C.) was 100%. The “Monomer Content (%) Retatrutide” value ([3]; D 28, RT) was 100%, the “Monomer Content (%) Retatrutide” value ([3]; D 56, 2-8° C.) was 100% and the “Monomer Content (%) Retatrutide” value ([3]; D 56, RT) was 100%.
